Test in all cases: ITC; ITC (iTC200) at 25 °C in buffer C (composition not given; protein stored in 25 mM Hepes pH 7.5, 150 mM NaCl, 5 mM b-ME); 20 uM protein in cell, 200 uM DNA in syringe, one-site model
Data set [1] deals with PAX6 PD G72C (human, UniProt P26367 4-136, G72C). The conditions noted are these: protein: recombinant, tags: N-terminal His6 removed by TEV.
For data set [2], the target named is PAX6 PD G72S (human, UniProt P26367 4-136, G72S). As to conditions: protein: recombinant.
In data set [3] the target is PAX6 PD S74G (human, UniProt P26367 4-136, S74G). The conditions noted are these: protein: recombinant.
PAX6 PD S74G, sequence (P26367 4-136 S74G): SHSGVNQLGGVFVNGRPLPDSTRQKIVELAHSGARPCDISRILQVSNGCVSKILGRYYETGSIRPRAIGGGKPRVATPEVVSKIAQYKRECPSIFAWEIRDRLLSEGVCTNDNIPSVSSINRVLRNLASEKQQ
For data set [4], the target named is PAX6 PD G64V (human, UniProt P26367 4-136, G64V). As to conditions: protein: recombinant.
PAX6 PD G64V, sequence (P26367 4-136 G64V): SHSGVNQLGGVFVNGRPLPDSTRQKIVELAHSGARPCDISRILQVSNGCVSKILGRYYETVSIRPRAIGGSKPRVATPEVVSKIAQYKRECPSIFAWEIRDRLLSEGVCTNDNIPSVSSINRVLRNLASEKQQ
Data set [5] has as its target PAX6 paired domain WT (human, UniProt P26367 4-136). As to conditions: protein: recombinant, tags: N-terminal His6 removed by TEV.
Data set [6] addresses PAX6 PD G73D (human, UniProt P26367 4-136, G73D). The conditions noted are these: protein: recombinant.
The target of data set [7] is PAX6 PD P76R (human, UniProt P26367 4-136, P76R). The conditions noted are these: protein: recombinant; 5' overhang 2 nt on each strand (AA/TT), 24 bp.
PAX6 PD P76R, sequence (P26367 4-136 P76R): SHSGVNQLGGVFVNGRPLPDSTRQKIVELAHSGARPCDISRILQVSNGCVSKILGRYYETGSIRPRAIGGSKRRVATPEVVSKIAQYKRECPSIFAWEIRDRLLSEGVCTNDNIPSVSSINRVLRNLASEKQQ
Setting [8] is: 5' overhang 2 nt on each strand (AA/TT), 24 bp.

PAX6 PD G72C, sequence (P26367 4-136 G72C): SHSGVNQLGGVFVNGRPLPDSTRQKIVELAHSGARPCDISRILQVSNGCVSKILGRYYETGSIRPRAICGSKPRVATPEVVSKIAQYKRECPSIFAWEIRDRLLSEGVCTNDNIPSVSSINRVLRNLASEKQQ
PAX6 PD G73D, sequence (P26367 4-136 G73D): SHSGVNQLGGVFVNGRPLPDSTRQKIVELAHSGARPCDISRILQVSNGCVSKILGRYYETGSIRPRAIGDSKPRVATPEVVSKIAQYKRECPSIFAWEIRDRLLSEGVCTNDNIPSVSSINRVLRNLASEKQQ
PAX6 paired domain WT, sequence (P26367 4-136): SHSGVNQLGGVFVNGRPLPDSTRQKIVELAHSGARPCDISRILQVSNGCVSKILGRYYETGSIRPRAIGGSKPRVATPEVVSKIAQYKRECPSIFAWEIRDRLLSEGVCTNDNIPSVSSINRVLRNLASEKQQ
PAX6 PD G72S, sequence (P26367 4-136 G72S): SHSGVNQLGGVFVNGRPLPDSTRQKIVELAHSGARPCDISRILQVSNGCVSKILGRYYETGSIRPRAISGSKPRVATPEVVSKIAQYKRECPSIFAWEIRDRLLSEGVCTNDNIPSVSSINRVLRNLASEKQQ

B1: CD19 A-ins (dsDNA)
DNA 1: GAATGGGGCACTGAGGCGTGACCACCGC
DNA 2: GCGGTGGTCACGCCTCAGTGCCCCATTC
As for B1, the Kd in data set [1] (blunt) is 5020 ± 360 nM; in data set [2] (blunt) it was 980 ± 43 nM; in data set [3] (blunt) it was 943 ± 31 nM; in data set [4] (blunt), 2170 ± 162 nM; in data set [5] (blunt), 952 ± 78 nM. Moreover, the binding result in data set [6] (blunt) was “no binding”.

B2: P6B (dsDNA)
DNA 1: AAGCATTTTCACGCATGAGTGCACAG
DNA 2: TTCTGTGCACTCATGCGTGAAAATGC
As for B2, the dissociation constant Kd in data set [1] (setting [8]) was found to be 579 ± 370 nM; in data set [2] (setting [8]), 1200 ± 130 nM; in data set [3] (setting [8]), 699 ± 180 nM; in data set [4] (setting [8]) it was 2520 ± 1020 nM; in data set [5] (setting [8]) it was 411 ± 68 nM; in data set [7], 740 ± 93 nM. Besides, the Kd in data set [6] (setting [8]) was 489 ± 128 nM.

B3: P6CON (dsDNA)
DNA 1: AAATTTTCACGCTTGAGTTCACAGCT
DNA 2: AGCTGTGAACTCAAGCGTGAAAATTT
With B3, the Kd in data set [1] (blunt) was 1410 ± 110 nM; in data set [2] (blunt), 943 ± 37 nM; in data set [3] (blunt), 1040 ± 45 nM; in data set [4] (blunt) it was 1290 ± 78 nM; in data set [5] (blunt), 925 ± 47 nM; in data set [6] (blunt), 961 ± 48 nM.

For the origin of these results see publication PMC7046147, “Impaired DNA-binding affinity of novel PAX6 mutations”.
